Results: patent publication US20060026702A1, “Phosphoinositide 3-kinase mediated inhibition of GPCRs” (DUKE UNIVERSITY, priority 2002, published 2006)

Tests used:
β2AR [1] = assay: β2AR sequestration in HEK-293 cells by 125I-Cyanopindolol binding; format: cell-based; settings: 1 μM isoproterenol, 0-30 min; wortmannin 100 nM 15 min before, or co-transfected ΔPI3Kγ
Procedure: Determination of β2AR Sequestration in HEK-293 Cells by ^125I-Cyanopindolol (CYP) Binding—β2AR sequestration was performed as previously described. Briefly, HEK-293 cells were plated at a density of 2.5×10^6 cells/dish and transfected the following day with plasmids containing either the β2AR (150-250 ng), β2AR (250 ng) and HEAT domain (4 μg), PI3Kγ (4.0 μg) or ΔPI3Kγ (4.0 μg) cDNAs. Twelve hours after transfection cells were split into six well Falcon plates at a density of 750,000 cells/well. […] To determine the amount of internalized receptor, 100 μl aliquots of whole cells were added to 150 μl of binding buffer (75 mM Tris-HCl, 10 mM MgCl2, 5 mM EDTA (pH 7.5)). Total binding was determined in the presence of 175 pM ^125I-CYP alone, the number of internalized receptors were determined by using 175 pM ^125I-CYP plus 100 nM CGP12177, and non-specific binding was determined using 175 pM ^125I-CYP plus 1 μM propranolol. Sequestration was calculated as the ratio of (specific receptor binding of ^125I-CYP in the presence of CGP12177)/(specific receptor binding of ^125I-CYP in the absence of CGP12177).

β2AR [2] = biological target: T1, β2AR (Homo sapiens, UniProt P07550); assay: Agonist-induced β2AR phosphorylation, 32P metabolic labeling; format: cell-based; settings: 10 μM isoproterenol 5 min; ΔPI3Kγ co-transfected
T1 construct: expressed in transfected cells; host or cells: HEK-293
Procedure: β2AR Phosphorylation—β2AR phosphorylation was performed in intact cells as previously described. Cells were transfected with plasmids containing the FLAG β2AR (2 μg) and vector DNA (2.5 μg), the FLAG β2AR (2 μg) and PI3Kγ (2.5 μg), or the β2AR (2 μg) and ΔPI3Kγ (2.5 μg). 24 hr after transfection, cells were washed and metabolically labeled for 1 hr with medium containing 100 μCi of ^32P/ml. […] Following centrifugation at 38000×g for 20 min at 4° C., the supernatants were processed for immunoprecipitation of the FLAG-β2AR as described above. Phosphorylated receptors were resolved by 10% SDS-polyacrylamide gel electrophoresis and dried gels subjected to autoradiography.
To directly test the effect of API3Kγ expression on receptor phosphorylation, ^32P; metabolic labeling was performed in HEK-293 cells transfected with plasmids containing FLAG β2AR and either the PI3Kγ or ΔPI3Kγ cDNAs. […] Thus, the effect of overexpression of ΔPI3Kγ on β2AR sequestration is not related to processes that are involved with β2AR phosphorylation or β-arrestin2 recruitment. In FIG. 6D, Agonist (ISO, 5 min) promoted β2AR phosphorylation in transfected cells after ^32Pi metabolic labeling for 1 hour prior to stimulation (upper panel). Lower panel, immunoblot for HA showing equal levels of expression of HA-PI3Kγ and HA-ΔPIβKγ. + represents HA-PI3Kγ control.

β-arrestin2-GFP = β-arrestin2-GFP recruitment to the membrane by confocal microscopy; format: cell-based; settings: isoproterenol; co-expressed mutant protein
Procedure: Confocal Microscopy—Confocal microscopy was performed as previously described. […] Cells were split into 35 mm^2 dishes with glass bottoms for observation using a Zeiss LSM-510 confocal microscope. […] For analyses of the HEAT domain, HEK 293 cells were transfected with the plasmids containing cDNAs encoding either the β2AR-YFP (2 μg) or β2AR-YFP (2 μg) and HEAT domain (4 μg). Cells were plated onto glass bottom dishes for observation in the confocal microscope. […] Cells were permeablized with 0.1% Triton X-100 in phosphate-buffered saline for 20 min, incubated in 1% BSA in phosphate-buffered saline for 1 hr. Cells were washed with 1× phosphate-buffered saline and incubated with anti-HA or anti-FLAG monoclonal antibody (1:250) with 1% BSA in 1× phosphate-buffered saline for 1 hr. Cells were washed and incubated with goat anti-mouse IgG conjugated with Texas Red (1:500) (Molecular Probes) for 1 hr. Samples were visualized using single sequential line excitation filters at 488 and 568 nm and emission filter sets at 505-550 nm for GFP detection and 585 for Texas Red detection.
To exclude these possibilities cells were co-transfected with plasmids containing FLAG β2AR, β-arrestin2-GFP and either PI3Kγ or ΔPI3Kγ cDNAs, and were monitored for the recruitment of β-arrestin2-GFP using confocal microscopy. […] Marked redistribution of β-arrestin2-GFP to the membrane occurred within 2.5 minutes. […]

[3] = system: Gβγ subunits of G-protein; assay: Pull-down with purified Gβγ; format: binding; settings: GST-HEAT beads with purified Gβγ
Procedure: Subsequently, 10 μg of purified Gβγ was added to either βARK1 immobilized beads (5 pg), or the GST-HEAT fusion protein beads (5 μg), and gently rocked for 45 min at room temperature. Beads were spun down, washed in binding buffer X2 and resolved by gel electrophoresis. The presence of Gβγ was detected by immunoblotting with an antibody directed against the Gβ subunit. Purified Gβγ and βARK1 were gifts from Dr. Robert Lefkowitz.
Purified βARK1 and GST-HEAT fusion protein immobilized on sepharose beads were incubated with purified Gβγ. The beads were washed and recovered proteins were analyzed by SDS-PAGE followed by immunoblotting with a Gβ polyclonal antibody. […] Purified Gβγ was loaded as a positive control.

βARK1 = biological target: T2, βARK1 (Bos taurus, UniProt P21146); assay: Co-immunoprecipitation and GST pull-down with purified βARK1; format: binding; settings: sepharose beads, versus GST alone
T2 construct: gift from Dr. Robert Lefkowitz
T2 sequence (P21146 1-689): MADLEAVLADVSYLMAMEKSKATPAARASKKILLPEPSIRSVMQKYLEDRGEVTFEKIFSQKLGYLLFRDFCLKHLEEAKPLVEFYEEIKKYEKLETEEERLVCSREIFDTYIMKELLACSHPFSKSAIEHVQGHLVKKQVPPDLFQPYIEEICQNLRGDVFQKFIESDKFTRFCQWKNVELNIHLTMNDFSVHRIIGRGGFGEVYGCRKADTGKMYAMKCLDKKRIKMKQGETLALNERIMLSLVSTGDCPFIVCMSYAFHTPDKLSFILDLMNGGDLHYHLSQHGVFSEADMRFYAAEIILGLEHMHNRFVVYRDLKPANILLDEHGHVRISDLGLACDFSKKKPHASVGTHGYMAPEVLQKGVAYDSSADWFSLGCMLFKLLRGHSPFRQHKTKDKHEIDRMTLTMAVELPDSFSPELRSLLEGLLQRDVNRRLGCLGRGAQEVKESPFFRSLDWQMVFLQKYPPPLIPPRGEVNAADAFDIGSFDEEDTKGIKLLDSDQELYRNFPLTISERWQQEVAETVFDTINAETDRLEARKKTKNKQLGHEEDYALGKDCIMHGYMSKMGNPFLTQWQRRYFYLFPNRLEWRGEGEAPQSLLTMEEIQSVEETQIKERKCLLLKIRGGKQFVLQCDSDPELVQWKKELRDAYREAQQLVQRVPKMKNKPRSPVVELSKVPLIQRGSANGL
Procedure: GST Fusion Protein Expression and Pull-down Experiments—Plasmid DNAs were transformed in Escherichia coli BL21 cells. Overnight cultures were grown in LB medium supplemented with ampicillin (100 μg/ml), diluted to an A600 of 0.2 in the same medium and grown for another 1 hr at 37° C. Cultured cells were then induced with 0.1 mM isopropyl-1-thio-β-D-galactopyranoside for 2 hr. Cell were then pelleted, washed once with 1× phosphate-buffered saline and resuspended in 1× phosphate-buffered saline containing 1 mM phenylmethylsulfonyl fluoride, 2 mg/ml lysozyme and incubated for 15 min on ice. Cells were lysed by adding Triton X-100 1%. Solublized cells were incubated with DNase (300 units) for 15 min on ice and centrifuged at 13,000 rpm for 10 min.
Glutathione-Sepharose beads were added to the supernatant and gently agitated at 4° C. for 2 hr. Beads were washed three times with ice cold 1×PBS containing 1% Triton X-100 followed by three washes with cold PBS without detergent. Protein concentration was determined using a DC protein assay kit (Bio Rad), and the integrity of the fusion protein was analyzed by SDS-polyacrylamide gel electrophoresis and Coomassie staining.
The beads were spun and washed three times with binding buffer followed by three washes with binding buffer without detergent. The beads were resuspended in SDS gel loading buffer and resolved by gel electrophoresis, immunblotting and detection was carried out described later.
FLAG-HEAT and PI3KΔHEAT proteins were immunoprecipitated from cell extracts using monoclonal FLAG and HA antibodies respectively, fractionated by SDS-PAGE and analyzed by immunoblotting with βARK1 monoclonal antibody. […] Levels of expression of HEAT and PI3KΔHEAT proteins were similar (FIG. 8B, lower panel).
To investigate whether there was a direct physical interaction between the HEAT domain of PI3K and βARK1, GST-HEAT fusion protein containing 535-732 amino acid residues of PI3Kγ was produced, which including the entire HEAT domain and flanking upstream 10 amino acids and downstream 7 amino acids. […]

Molecule | rate of β2AR sequestration (β2AR [1]) | level of agonist-induced receptor phosphorylation (β2AR [2]) | recruitment of β-arrestin2-GFP to the receptor/membrane after agonist (β-arrestin2-GFP) | association of Gβγ [3] | binding of purified βARK1 to immobilized fusion protein (βARK1)
ΔPI3Kγ: HA tagged PI3 Kp110γ mutant, Δ942-981, deletion in ATP binding site; catalytically inactive (protein) MELENYKQPVVLREDNCRRRRRMKPRSAASLSSMELIPIEFVLPTSQRKCKSPETALLHVAGHGNVEQMKAQVWLRALETSVAADFYHRLGPHHFLLLYQKKGQWYEIYDKYQVVQTLDCLRYWKATHRSPGQIHLVQRHPPSEESQAFQRQLTALIGYDVTDVSNVHDDELEFTRRGLVTPRMAEVASRDPKLYAMHPWVTSKPLPEYLWKKIANNCIFIVIHRSTTSQTIKVSPDDTPGAILQSFFTKMAKKKSLMDIPESQSEQDFVLRVCGRDEYLVGETPIKNFQWVRHCLKNGEEIHVVLDTPPDPALDEVRKEEWPLVDDCTGVTGYHEQLTIHGKDHESVFTVSLWDCDRKFRVKIRGIDIPVLPRNTDLTVFVEANIQHGQQVLCQRRTSPKPFTEEVLWNVWLEFSIKIKDLPKGALLNLQIYCGKAPALSSKASAESPSSESKGKVRLLYYVNLLLIDHRFLLRRGEYVLHMWQISGKGEDQGSFNADKLTSATNPDKENSMSISILLDNYCHPIALPKHQPTPDPEGDRVRAEMPNQLRKQLEAIIATDPLNPLTAEDKELLWHFRYESLKHPKAYPKLFSSVKWGQQEIVAKTYQLLARREVWDQSALDVGLTMQLLDCNFSDENVRAIAVQKLESLEDDDVLHYLLQLVQAVKFEPYHDSALARFLLKRGLRNKRIGHFLFWFLRSEIAQSRHYQQRFAVILEAYLRGCGTAMLHDFTQQVQVIEMLQKVTLDIKSLSAEKYDVSSQVISQLKQKLENLQNSQLPESFRVPYDPGLKAGALAIEKCKVMASKKKPLWLEFKCADPTALSNETIGIIFKHGDDLRQDMLILQILRIMESIWETESLDLCLLPYGCISTGDKIGMIEIVKDATTIAKIQQSTVGNTGAFKDEVLNHWLKEKSPTEEKFQAAVERFVYSCAGYCVATFVLGIGDRVPFVLTPDFLFVMGTSGKKTSPHFQKFQDICVKAYLALRHHTNLLIIILFSMMLMTGMPQLTSKEDIEYIRDALTVGKNEEDAKKYFLDQIEVCRDKGWTVQFNWFLHLVLGIKQGEKHSAYPYDVPDYA | significant attenuation | not affected | prompt recruitment | – | –
GST-HEAT: GST fusion protein containing 535-732 amino acid residues of PI3Kγ, including the entire HEAT domain (protein, left off: a dimerising Fc or GST, GST fusion protein containing 535-732 amino acid residues of PI3Kγ, including the entire HEAT domain) HPIALPKHQPTPDDRVRAEMPNQLRKQLEAIIATDTAEDKELLWHFRYESLKHPKAYPKLFSSVKWGQQEIVAKTYQLLARREVWDQSALDVGLTMQLLDCNFSDENVRAIAVQKLESLEDDDVLHYLLQLVQAVKFEPYHDSALARFLLKRGLRNKRIGHFLFWFLRSEIAQSRHYQQRFAVILEAYLRGCGTA | – | – | – | no association | bound specifically
